T1: human IL-18BP (human, UniProt O95998 31-194)
T1 construct: UniProt printed as 095998; also called hIL-18BP
T1 sequence: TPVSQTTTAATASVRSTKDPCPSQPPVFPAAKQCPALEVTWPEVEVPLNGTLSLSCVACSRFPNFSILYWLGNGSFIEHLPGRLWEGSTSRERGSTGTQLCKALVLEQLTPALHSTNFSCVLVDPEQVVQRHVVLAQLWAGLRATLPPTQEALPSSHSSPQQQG

B1: SA301a LC-Q90A (antibody, name in Kabat numbering, V domains shown)
VH: QVQLQESGPGLVKPSQTLSLTCTVSGYSITSDYNSHWIRQPPGKGLEWIGYIHYSGSTNYNPSLKSRVTISRDTSKNQFSLKLSSVTAADTAVYYCARNYGSIYVNYFDYWGQGTLVTVSS
VL: EIVLTQSPATLSLSPGERATLSCSASSSVSYMYWYQQKPGQAPRPLIYRTSNLASGIPARFSGSGSGTDFTLTISSLEPEDFAVYYCQAYHSYPTFGGGTKVEIK
notes: IgG1 kappa
B2: SA301a LC-H92Y (antibody, V domains shown)
VH: B1 VH
VL: B1 VL with A89Q, H91Y
B3: SA301a LC-Q89K (antibody, V domains shown)
VH: B1 VH
VL: B1 VL with Q88K, A89Q
B4: SA301a LC-Q89D (antibody, V domains shown)
VH: B1 VH
VL: B1 VL with Q88D, A89Q
B5: SA301a LC-H92F (antibody, V domains shown)
VH: B1 VH
VL: B1 VL with A89Q, H91F
B6: SA301a LC-H92V (antibody, V domains shown)
VH: B1 VH
VL: B1 VL with A89Q, H91V
B7: SA301a LC-Q89G (antibody, V domains shown)
VH: B1 VH
VL: B1 VL with Q88G, A89Q
B8: SA301a LC-Q89M (antibody, V domains shown)
VH: B1 VH
VL: B1 VL with Q88M, A89Q
B9: SA301a LC-Q89F (antibody, V domains shown)
VH: B1 VH
VL: B1 VL with Q88F, A89Q
B10: SA301a LC-Q89A (antibody, V domains shown)
VH: B1 VH
VL: B1 VL with Q88A, A89Q
B11: SA301a LC-Q89Y (antibody, V domains shown)
VH: B1 VH
VL: B1 VL with Q88Y, A89Q
B12: SA301a LC-Q89L (antibody, V domains shown)
VH: B1 VH
VL: B1 VL with Q88L, A89Q
B13: SA301a LC-Q89V (antibody, V domains shown)
VH: B1 VH
VL: B1 VL with Q88V, A89Q
B14: SA301a LC-Q89S (antibody, V domains shown)
VH: B1 VH
VL: B1 VL with Q88S, A89Q
B15: SA301a LC-Q89E (antibody, V domains shown)
VH: B1 VH
VL: B1 VL with Q88E, A89Q
B16: SA301a LC-Q89N (antibody, V domains shown)
VH: B1 VH
VL: B1 VL with Q88N, A89Q
B17: SA301a LC-Y91Q (antibody, name in Kabat numbering, V domains shown)
VH: B1 VH
VL: B1 VL with A89Q, Y90Q
notes: IgG1 kappa
B18: SA301a LC-Q90Y (antibody, name in Kabat numbering, V domains shown)
VH: B1 VH
VL: B1 VL with A89Y
notes: IgG1 kappa
B19: SA301a LC-Q90L (antibody, name in Kabat numbering, V domains shown)
VH: B1 VH
VL: B1 VL with A89L
notes: IgG1 kappa
B20: SA301a LC-Y91M (antibody, name in Kabat numbering, V domains shown)
VH: B1 VH
VL: B1 VL with A89Q, Y90M
notes: IgG1 kappa
B21: SA301a LC-Q90D (antibody, name in Kabat numbering, V domains shown)
VH: B1 VH
VL: B1 VL with A89D
notes: IgG1 kappa
B22: SA301a LC-Q90P (antibody, name in Kabat numbering, V domains shown)
VH: B1 VH
VL: B1 VL with A89P
notes: IgG1 kappa
B23: SA301a LC-Y91E (antibody, name in Kabat numbering, V domains shown)
VH: B1 VH
VL: B1 VL with A89Q, Y90E
notes: IgG1 kappa
B24: SA301a LC-Y91V (antibody, name in Kabat numbering, V domains shown)
VH: B1 VH
VL: B1 VL with A89Q, Y90V
notes: IgG1 kappa
B25: SA301a LC-Q90R (antibody, name in Kabat numbering, V domains shown)
VH: B1 VH
VL: B1 VL with A89R
notes: IgG1 kappa
B26: SA301a LC-Q90V (antibody, name in Kabat numbering, V domains shown)
VH: B1 VH
VL: B1 VL with A89V
notes: IgG1 kappa
B27: SA301a LC-Y91P (antibody, name in Kabat numbering, V domains shown)
VH: B1 VH
VL: B1 VL with A89Q, Y90P
notes: IgG1 kappa
B28: SA301a LC-Q90K (antibody, name in Kabat numbering, V domains shown)
VH: B1 VH
VL: B1 VL with A89K
notes: IgG1 kappa
B29: SA301a LC-Y91S (antibody, name in Kabat numbering, V domains shown)
VH: B1 VH
VL: B1 VL with A89Q, Y90S
notes: IgG1 kappa
B30: SA301a LC-Y91F (antibody, name in Kabat numbering, V domains shown)
VH: B1 VH
VL: B1 VL with A89Q, Y90F
notes: IgG1 kappa
B31: SA301a LC-Q90I (antibody, name in Kabat numbering, V domains shown)
VH: B1 VH
VL: B1 VL with A89I
notes: IgG1 kappa
B32: SA301a LC-Q90G (antibody, name in Kabat numbering, V domains shown)
VH: B1 VH
VL: B1 VL with A89G
notes: IgG1 kappa
B33: SA301a LC-Y91K (antibody, name in Kabat numbering, V domains shown)
VH: B1 VH
VL: B1 VL with A89Q, Y90K
notes: IgG1 kappa
B34: SA301a LC-Y91T (antibody, name in Kabat numbering, V domains shown)
VH: B1 VH
VL: B1 VL with A89Q, Y90T
notes: IgG1 kappa
B35: SA301a LC-Y91A (antibody, name in Kabat numbering, V domains shown)
VH: B1 VH
VL: B1 VL with A89Q, Y90A
notes: IgG1 kappa
B36: SA301a LC-Q90T (antibody, name in Kabat numbering, V domains shown)
VH: B1 VH
VL: B1 VL with A89T
notes: IgG1 kappa
B37: SA301a LC-Q90F (antibody, name in Kabat numbering, V domains shown)
VH: B1 VH
VL: B1 VL with A89F
notes: IgG1 kappa
B38: SA301a LC-Q90M (antibody, name in Kabat numbering, V domains shown)
VH: B1 VH
VL: B1 VL with A89M
notes: IgG1 kappa
B39: SA301a LC-Q90H (antibody, name in Kabat numbering, V domains shown)
VH: B1 VH
VL: B1 VL with A89H
notes: IgG1 kappa
B40: SA301a LC-Y91R (antibody, name in Kabat numbering, V domains shown)
VH: B1 VH
VL: B1 VL with A89Q, Y90R
notes: IgG1 kappa
B41: SA301a LC-Y91G (antibody, name in Kabat numbering, V domains shown)
VH: B1 VH
VL: B1 VL with A89Q, Y90G
notes: IgG1 kappa
B42: SA301a LC-Y91I (antibody, name in Kabat numbering, V domains shown)
VH: B1 VH
VL: B1 VL with A89Q, Y90I
notes: IgG1 kappa
B43: SA301a LC-Q90E (antibody, name in Kabat numbering, V domains shown)
VH: B1 VH
VL: B1 VL with A89E
notes: IgG1 kappa
B44: SA301a LC-Q90S (antibody, name in Kabat numbering, V domains shown)
VH: B1 VH
VL: B1 VL with A89S
notes: IgG1 kappa

Positions count from the first letter of the chain named. Names and notes keep the numbering of the source.

Results on 44 molecules are retold here after patent US20250368745A1 (published 2025).

For the assay, the target named is T1, human IL-18BP. The experiment in a line: BLI, apparent KD. A general note: In BLI a coated tip is dipped into the sample, and binding shifts an interference pattern.
Regarding B1, the Kd stood at 1.07 nM.
With B2, the Kd turned out to be 0.1 nM.
For B3, the Kd is 0.97 nM.
As to B4, the Kd was 0.02 nM.
As for B5, the Kd was determined as 0.7 nM.
On to B6, for which the Kd amounted to 0.2 nM.
With B7, the Kd stood at 0.32 nM.
On to B8, for which the Kd came to 0.49 nM.
As to B9, the Kd is 0.4 nM.
Regarding B10, the Kd was 0.39 nM.
In the case of B11, the Kd came to 0.35 nM.
For the molecule B12, the Kd was found to be 0.85 nM.
The same measure for B13: 0.51 nM; for B14: 0.28 nM; for B15: 0.46 nM.
Regarding B16, the Kd is 0.28 nM.
B17: the Kd was 0.24 nM.
Turning to B18, the Kd amounted to 1.04 nM.
For B19, the Kd came to 0.13 nM.
The figure for B20 is 0.22 nM; for B21 it is 0.31 nM; for B22 it is 0.09 nM.
The figure for B23 is 0.31 nM; for B24 it is 1.85 nM; for B25 it is 0.51 nM.
Regarding B26, the Kd stood at 0.29 nM.
The figure for B27 is 0.24 nM.
As for B28, the Kd was 0.1 nM.
On to B29, for which the Kd amounted to 0.33 nM.
With B30, the Kd came out at 0.26 nM.
Turning to B31, the Kd was 0.24 nM.
The same measure for B32: 0.78 nM; for B33: 1.13 nM.
The same measure for B34: 0.45 nM; for B35: 1.08 nM; for B36: 0.4 nM.
For the molecule B37, the Kd amounted to 0.65 nM.
The figure for B38 is 0.27 nM; for B39 it is 0.25 nM.
With B40, the Kd was 0.18 nM.
As for B41, the Kd turned out to be 0.23 nM.
The same measure for B42: 0.42 nM; for B43: 0.18 nM.
Take B44: the Kd was determined as 0.41 nM.
